The target in test [1] is HIV-1 integrase, wild type, full-length (HIV-1). Briefly: SEC; analytical SEC as for IN alone, but 0.3 mg/ml LEDGF IBD pre-incubated with IN on ice for 5 min before injection; Shodex KW403-4F on ice, 750 mM NaCl, 10 mM MgCl2, 20 mM HEPES-NaOH pH 7.0.
Test [2] has the same target. The test can be described thus: cross-linking; BS3 (2-0.2 mM), 3 µM IN or 1.5 µM each of two mutants, 0.75 M NaCl, 2 mM MgSO4, 25 µM ZnCl2, 25 mM Hepes-NaOH pH 7.5, 30 min at 18°C; SDS-PAGE, Sypro Orange.
Test [3] shares this target. The test can be described thus: SEC; analytical SEC of IN alone (or an equimolar mixture of two mutants); Shodex KW403-4F column on ice, 750 mM NaCl, 10 mM MgCl2, 20 mM HEPES-NaOH pH 7.0; 35 µl IN at 0.6 mg/ml with 25 µM ZnCl2 and 2.8 mM CHAPS. A general note: In gel filtration, larger molecules generally elute earlier.

Regarding “integrase binding domain of lens epithelium derived growth factor (LEDGF IBD) (from UniProt O75475 1-435) (domain or fragment)”, the stoichiometry N (per IN tetramer) in test [1] is 4.
Consider “HIV-1 integrase, wild type, full-length (enzyme)”, for which the stoichiometry N in test [2] and in test [3] was 4 in each case.

The term stoichiometry N denotes the number of molecules, sites or subunits per partner or assembly.

Source of the values: publication PMC2705190.
